According to the domain aggregation screens of Martell et al. (2025):

Experiment: soluble fraction after stress (log2 fold change); higher = more stays soluble; pooled small domains, quantitative proteomics
Settings: stress: pH 4
How it was run: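 High-throughput quantitative proteomics was run on pooled custom libraries of small protein domains following pH 4 stress. Fold changes are on a log2 scale; higher values mean more of a domain remained soluble. The fold change in soluble amount is taken as a measure of aggregation propensity.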

Sequence	soluble fraction (log2)
HMKEGTIPPVVNRTLSDAEFVLKSYGYELGRVSEQHSDMPKDIVIKQSPEAGTVADPGTRVDVVVSIGKA	0.0175
HMAVVQMVDRPGGLDELLKDVVRAGVNFANAYGRTASDGNSAFFVIDIQDIPGARQKLADVGLQILADEAV	-0.512
HMIEMGNRIRTLRKRRVGSQSEFAEKLDVSVVTISRIENGMTKIDAELLIKMSEVLQVPVNIILGM	-1.7
HMNSDQMKEHLDNLVDMAKKNDNTLIDTEIVNYFVGKPDIELNTDMMTKIFDYLDEHHVAVLS	-1.85
HMTSVMAWRLITPIPQHGIIRSSQVQLQKHAPNSLKFLDVDSSPVGKQVKHGIAAGHWLSKDDFTE	≥ 0.43
HMTDMYLTYQELRHLGVSQNLISMWKSRKSIDFHMLGGTLYVRYMSIPEQTRSKLALQNVERVYNSRE	0.0329
HMDLDYSGIMNVLNQKYHITFYNNKKIQNLMPKLMIIMGYNSIINEIGHSKSLKALINSFEEKLKSYILT	-0.403
HMNEYHRNISDEEFVRDIKETAIKLKKETLTGVEYSQNGKYHASTIIHRFGSWKKALELAELNTK	0.257
HMNGARALAGAIAEAIRKQVYRVNERLPAERELASHYDVSRGTLRSALALLEQEGLVTRKVGSGTFVMPP	0.161
HMPSPEMLKETEKRKAEEIYRSQINLFIDDYHRLKGQYPLLEDIIDNKKDSIPIEILREISISILKNYFE	-0.926
HMNHYTEEYILKRMKDFFTTHAYITRRDIESLFGFRRSYATKWLKHFRESGVLKQSGPVNSAVYLL	-1.12
HMGIKAADIVTNDIQFNTQAQFDKYKDLYPTLGWGNYDPNKTYTMQGFKNKLKPNELFTGTPNLKIEDT	-0.105
HMFPSLSPEEQAVVDVLQRNNDLQINMLSVQSGLTISRLTALLFQLEMKGVIKPLAGGMYHLL	-0.493
HMEKVDAISQSILDVLKKNNGYLAVTDKSDPDEIYGLFQISKKTFKKAIGSLYRDRLISIEEEGIRLR	-0.237
HMIPRNLEDLVRENQIGLVILKIVEIIGEDNIRDLDPETIYFINRILNELNLKKIRNNILSEALPPR	-0.8
HMIDSDENERIKELIKALISETLKSRGVSPEVISDIKERVDRLHNEELPRFAAELKELISRN	-0.209
HMSPRQVTAVRSGSPMPVLPGEDWRLYDASGALVARGSGAAPIPKSTGLLRLNSEGLDGLADRWIWVL	-0.154
HMEFQISLAAARVNANMTQEDTARAMKVSKTTIVNWEKGKVIPGIPEVEMMSRLYGIPQDYIFLP	-0.796
HMKEEDYEVFMRLINVRGIGPKSALNILGVISGQEMIQAIENDDIKRLKSLPGIGAKTAGQIVLDLKGKFV	-0.705

Sequence	soluble fraction (log2)
HMKRLPFSFAKRFGVVVEDGEPPIVHHRDGASAETLLEVRRRLGQVFTLQRHDAEAFERLLTQAYQR	-0.837
HMGEESIAELISNPKLSDAKRTVILDLLSRGLTVDQIKPYIQSDDPYTAEQLQFELYKLFFTQI	-1.34
HMLPRLVLSPGTEVLATVMGKYENGMSLVKISSHLFAMDLPSRVQVGDSLRMTFLHQDARPTFALA	-0.142
HMLPPVFLTIDANENVIVRKDGEPVQTLNKFELGAFARSQAENSAEQPVVLAADKSIKYEVVMEVI	-0.378
HMRKIKEVLRLKFETGFSHERIAAAVGVSKGAVTKYVQRAVAAGLGWPLAPERDDAALEALLFPH	0.0455
HMEATILTATPEAAGQRLDAFLAETLPELTRSAAQRLIAEGQVAVDGKIPTKSLKLAGGETVSVRLPEPE	-0.0707
HMSGAWEVGLLRQFTDWMGTQYNAYAGRNFDAITVAQVAEKNPELLTPFVESFFKERVEPALAAG	-0.589
HMRPRWTEQEVERAKAIKMIYPNAYRLESSDVFVQVWSKEEILLAHVEVDMFPSLRPGQPVELDEIIG	-0.114
HMKEVVVPDYFLKQLQKNKKAFITFNNFSPSHKREYVEWITEAKTEETKNRRMKSAIEWMSEGKSRNWKYI	0.22
HMTGQVASMVERLAQRLKDQPQDAEGWAMLARSYSVLGRHPEALQAYEKALALRKDDANLLADYADSLA	-0.729
HMIVIMAKESSPAELEGVKNRIESHPGLRPQVFDGVERIVVGVLGSIPPDLKDEIELLPGVIEVVPISK	-0.211
HMFDGVAAGKPAILDALEDAGGFLPLNSKSSVEEIQASFSFSKRVFKQLIGMLYKERKIVITDDGIRLAD	-0.654
HMKLSNELLNAIMLIKKGIRNPTSLAQRLNTDTQYAKNLLEHLKMTGLINEHSRLTSRGLDIFHQK	-0.295
HMPGDIRKAAILLMSLPREQAAQVLARLDPKQVEAVTIEIARLGTVTPDEQEQALKEFSQANPA	-0.141
HMSAIEIDAEKILNYLTDRGGKMPYGDTTAPEVIKDKFNISKAAFKRALGFLLRSNKIEQIDGWTYI	-0.375
HMSPVPRIEIELTSSKEDGSWTWRAVGAREPRGSLDGALLAKPAAVGDVLRVETDQFLDGMTVTAILPPRD	-0.6
HMQDVKRYLVNSNQLNVRTGPGKEFEISESLNKGDAVTLLHKESNGWWEVITSTGQGYVYSSMLTKDPW	0.0322
HMKKLPEKFDYNEISGLRIEAQQKLNEFQPLNIGQASRISGVTPADISVLLVYLEQLKYSNPDLFFKLNPD	-0.743
HMSVLRLGNRGPDVRKLQLLLNSTLVPSPQLTVDGDFGKRTEQAVVTFQQMRGLPQDGIVGQRTWALLGQT	0.241
